Assay: label from the status in PepcDB records
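Further: failed if final PepcDB status was selected cloned or expressed and not failed if soluble or beyond.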

Row | Sequence | protein production
1 | MKYTIEEIRQMQEGQTFDCKSILIEPKHLATIIVAMANADGGMIAVGISDKTRRIEGVNQDKEHLNDILRTPLDFCVPSVSVTTDYVPCTDAEGRDNRVLLMHIPASPRLHANQADEVFWRVGDKSRKLTFDERLQLMYDKGERYYEDSTAYDATLDDIDMDAVKAYMKRIGYGKSAMEYLQENKGFVTYKGDVPQVSAACILLFGKHPQTFFPRARVRFIKYFGTEEKVGREMNVIKDVTFDGRILEQIQKTVEYLETQVKEHSYLGEDGIFKTDREYPKFVIQEMVVNSVCHRDYSIKGTEIQIKMFDDRLVFETPGKLPGIVRTDNIRHTHFSRNPKIAEFLKAYDYVKEFGEGVDRMCRELSALGVKEPQYNLVAFIMKATVCAKVLEERQGTNHFDQKRPESDQKSDQMRIILELIKSNPNISRTELSEKTGLHDSSVKRRLKTLVDEGLIQRVGPDKGGQWKVIGSLLEHHHHHH | not failed
2 | MSLKIRDAYTIVTCPGRNFVTLKIVTESGTHGIGDATLNGREMAVAAYLDEHVVPALIGRDAGRIEDTWQYLYRGAYWRRGPVTMTAIAAVDMALWDIKAKAAGMPLYQLLGGKSRERVMTYAHCTGQTIEDCLGEVARHVELGYRAVRVQSGVPGIETTYGVAKTPGERYEPADSSLPAEHVWSTEKYLNHAPKLFAAVRERFGDDLHVLHDVHHRLTPIEAARLGKAVEPYHLFWLEDCVPAENQESLRLIREHTTTPLAIGEVFNSIHDCRELIQNQWIDYIRMPLTHGGGITAMRRVADLASLYHVRTGFHGPTDLSPVCLGAAIHFDTWVPNFGIQEHMPHTDETDAVFPHDYRFEDGHFLAGESPGHGVDIDEELAAKYPYERASLPVNRLEDGTLWHWEGHHHHHH | not failed
3 | YLELNEIESIIKDINTKAQKMHSGIHKRFYLFVALMTEFQALNGMRIGEMLAIQNEDIDFDNKSLNINGTIHWFHDESGGFGVKDTTKTESSYRTIGLSSRSCEILKKAILENKKDSKWNDGYLNRNFVFTNHKGNPMQTERFNKILREAAKDVGIDKEVSSHILRHSHISLLSQQGVSLKAIMDRVGHSDHRTTLSIYSHVTEQMDKDMMNKLEQVKLG | not failed
4 | ASLLARYPPEKLFQAERNFNAAQDLDVSLLEGDLVGVIKKKDPMGSQNRWLIDNGVTKGFVYSSFLKPYNPRRSHSDAS | not failed
5 | MKRSNTVRLVVSKEQHEVLKRLGIATAKCWNEVNWLRMKQYKEGKRVDFGITEKAVYEKYKSVLRVNAQQVARKNAEDWRSFFSLTREKKEGKLPSWFKPRPPGYWKDGRLIVIIRNDRYTVDERNRVVYLKDFNLSLKFKGRLKWHGKQGRLEIIYDEARKIWYAHIPVEVETEKVKEGIKASIDLGIVNLATVYVEDGSWYLFKGGSALSHYENYSKRITIVQKTLHRHRQRRSRRLKLLHEKRSRFLKHALNSMVRRIMEILREKNVGEVVVGYPKEIAKHHGNKLTVNFWNYSYIIKRLEDIGEELGIKVITVDEAYTSKTCSLCGEAHEDGRVKRGLFVCPRTRKAINADLNGAINILHIPESRGSEGNFHRGIGVIGLKTQPVTLSDLSKIKNHYNYSISDYTILHYIQPLEHHHHHH | not failed
6 | MSASVKESLQLQLLEMEMLFSMFPNQGEVKLEDVNALTNIKRYLEGTREALPPKIEFVITLQIEEPKVKIDLQVTMPHSYPYLALQLFGRSSELDRHQQLLLNKGLTSYIGTFDPGELCVCAAIQWLQDNSASYFLNRKLV | not failed
7 | MSQAFPGPHGAPATGHVPVLRLGEVLLVTLQGDLHDSTAQQLQEDLAETIVRSGATGVVIDVSGVEIVDSFLGRILAEIAGQTGLLAARTVLVGMRPAVAITLVELGLTLPGVHTALSTEVAMELLRQQAPSSRFGGLRQESQ | not failed
8 | MSLRTLVAGVDTSTQSCKVRVTDAETGELVRFGQAKHPNGTSVDPSYWWSAFQEAAEQAGGLDDVSALAVGGQQHGMVILDNQGNVIRDAMLWNDTSSAPQAAALIEKLGAAPAQDGEPEDPIARGKQRWVKAVGSSPVASYTLTKVAWVAENEPENVKKIAAICLPHDWLSWRIAGYGPVAEGEDAHLEALFTDRSDASGTIYYDAASNEYRRDLIAMVLEAAEGAKAAQSHAEAIVLPTVLGPRDAAPVKADPAIAGKNVEGGCLLAPGGGDNAMASLGLGMAVGDVSISLGTSGVAAAISENPTYDLTGAVSGFADCTGHYLPLACTINGSRILDAGRAALGVDYDELAKLAFASKPGANGITLVPYFDGERTPNRPNATATFSGMTLANTTRENLARAFVEGLLCSQRDCLELIRSLGASITRILLIGGGAKSEAIRTLAPSILGMDVTRPATDEYVAIGAARQAAWVLSGETEPPAWQLTIDGVETGEPTEAVYEAYAKARGEGHHHHHH | not failed
9 | MPEGLATAQAKYNGAAGRAFVEGLPALAAGFLERWELRLDGPSMHGWAALVLPVVRRDGTGAVLKLQILDAETEGEPLALRVWDGDGAVRLLDHDPATGTMLLERLDAGRMLSHVADSREAVLVIARLLAHLTATPAPPGVRRLGDIARGMLERTPGTLERIPDPADRRLVADCAAAVREVVDEPGDRLLHWDLHYENVLAADRAPWIAIDPKPLAGDPGFDLLPALDNRYDPGETRWRFDALTDVLGLDRERARAWSLGRVLQNSLWNVEDGDPLETEQMEIGRLLRDL | failed
10 | MSTSPYEKLSEQEKKQMIKEIQEQAYEALLYAFGVEKKMISDDVKNLLNIEQESAEEKRKMAYEATLLAATFSHSLAKDRDGVLATLKNQLHITDDFHRECQNRVRNNILVVQLTGEASGSNYVGETGWTTLRRISNTIFRF | failed
11 | MGCGLRKLEDPDESSPGKIFSTLKRPQVETKTEFAYEYALLDFTLQASTNPDVIKINSVLDIVAKVEDYYLKGYVVGAIHPVIQPVGQRKHLPASHLYRAVLSRLKLSPKHSAAGGQRRARLVMEECPLTCEAQANDAAKELMDKINAAAKRGMKFVGLVSQCYLPSMHCNGASHDGVAESGLHVRQDSQDNCKGWNEGALGGHLSESGVEEEPQHESGQHQTERNSSPSYANPKRGEAPDGKLYMVFNAFEEDAASWAYQEGVLSMKVTRKGAVISALDANWLELTTFYYKQGFSLIDSFVCWETPKVAKLEAFQLSVSDKLPKGKQKYSFQSLSGIPASGLA | not failed
12 | MSNNQQMMLNRIKVVLAEKQRTNRWLAEQMGKSENTISRWCSNKSQPSLDMLVKVAELLNVDPRQLINGKIKI | not failed
13 | MINYPNLPNSALEITEQPEVKEITNELLKQLQNALNSNSLFSEQVELSLKGIVRILEVLLSLDFFKNANEIDSSLRNSIEWLNNAGESLKTKMKEYEGFFSDFNTSMRTNEQEVSATLNANTENIKSEIKKLENQLIETTTRLLTSYQIFLNNARDSANNQITANKTESLEALNQAKTSANNEITANQTQALTNINEAKENANNQITENKTQAITNINEARESATTQITTNKQEVLNSITQEKNQATSEITEAKKSAFNELLETLKPKFSGLFAGAYYIRNVIIFKADGRRKSRI | failed
14 | MSAECWAALLHDPMTLDMDAVLSDFVRSTGAEPGLARDLLEGKNWDLTAALSDYEQLRQVHTANLPHVFNEGRG | not failed
15 | MIEGHGDDSYKYRHPIRSNFSSNVYNKVNLDGLRAHLCGRISAISAYPEPEPYTLEARLADRHALPAASVCVTNGATEAIYLIAQTFRGTNTAILMPTFSEYADACRMHGHKVTSLYTLDAVPEDVRMVWLCNPNNPTGEVRDKKYLTELIAKHPRVCFVIDQSYEYFTLKELFTAQEAAGFPNVILLHSMTKRYAIPGLRLGYVTAHPGLIGRLRTNRMPWSVNQLAIEAGLYLLSEGIPAGLSMKDYLAECARLKSSLEAIGGLEVWPTDTHFMLVCLRFGKAAALKEYLAREEGILIRDASNFEGLDERFFRIATQTPEENDELVGAIAKWMAE | failed
16 | KSEKRMKLTLKGGAAVDPDSGLEHSAHVLEKGGKVFSATLGLVDIVKGTNSYYKLQLLEDDKENRYWIFRSWGRVGTVIGSNKLEQMPSKEDAIEHFMKLYEEKTGNAWHSKNFTKYPKKFYPLEI | not failed
17 | MNQRIETITALLDEKKAFDITHIDLSKTPYLVEDVIIATTLANKHALSLLDALKNTLKPLGEVFYQIDESNEEWIILDLGDLMIHLFTEECRKKFDLEGFLNAYKRGLPYQNA | failed
18 | MNSCILQATVVEAPQLRYTQDNQTPVAEMVVQFPGLSSKDAPARLKVVGWGAVAQELQDRCRLNDEVVLEGRLRINSLLKPDGNREKQTELTVTRVHHLTLDSATGILAQEESEVSYGRSAAASAPVKASPVVTPTAAPDVDYDDIPF | failed
19 | RSRRFAHLQLFAHLELPCWARIRDLLNIGLPIGISILMEGGLFIVTTLLIGRFGTDEIAAHQIALSVAQLCFMIPMGVAEATTVRIGHAVGRCDLLVMRRVAWAGYAIVIGTQTLSASVLLLGYDVIVAAYTDDLVVASLASKLLLFAAIFQFPDGLQMLSSGVLRGMKDTRVPM | failed
20 | MSHPFEGLPTTPTAEELVDKAFSRASRAGGAKDGNEAQQSMLMTASNIASDNMENVVTAWPTIDDLDPFYVELADAVVGEAYPADDDPGIDALKQHLSEISWAADKVVEIRQEYESRVARGDIDTARKLRKQAFARIADVVEEVEDDLAAISTAHNALKDIPDIRPNEPAIVVAGYPNVGKSSFVNRVTRADNEIASYPFTTTQIRVGHFEDQRIRYQLVDTPGLLDRPPEDRNEIESQAVSALEHLADAVLVFIDPSGECGYPLADQLELRNAIEARFDVPVLTIANKSDLSTDVEADHYMSVTEDDNVDGVLQAAIDAVDYELELPFDE | failed
21 | MHPCHRPSFAFLRHPLSIVVCLALLAGCSTSPLQFPEPLLAKSEKAKATEGVALVSDDGKKAPASLAVPKTEFSGTPTSPRSIVGGVVDRMDKAILDDKKADISLNVEDVQLAAFINEVFGNILGLPFEIESALKEKTDRVTVRLEQPQTAQMVYEVARQVLVNYGVEILHQGDIYRFQIKQVGLSPDEPPILISGEARPSVPIAYRPVFQFVALHSVDPKDVIPWLNSAYEKSGLSVMADGARSGLMLKGMSSIVNQATEAVRLLDQPFMRGRHSLRIDPAFVSAADMASQLKTVIAAQGYSVGIGEAVGSIMLVPLESSNGLIVFANDGQLLDLVREWAQQVDRAPMAVAAGIGEEKEGLFFYEARNTRVTELAKSLRALVSGFAGEGAYGITSGLQSSASKRSGGGRRAGDDGAAPAVAPLLQAAGAAALVGGDGANGLLGGLAAGISGSGTIVEDENRNAILFRGAARTWQQMQGLLREMDKPARQVLIEVTVASVSLSDTQELGVEWEMLNGSFNSATSTGSKGSAGKGGFNYVINTAGGNTAAIQAMADNQRVRVLATPRILVKSGEQANINVGRDIPIPTAQVNDDSTTAGSTNLRNEIAYRSTGTILNVAPVVYSDSRVDLTVSQELSDSGGSSGGGGKASGGGISAPEISRTSLETSLTLKSGGSVLMGGLIRDNITDSNAGVPLLKDIPGIGFLFGRQKAVKTREEVIMLIQPYVLESDADAREVTEKLHAMLSKTLACSDRPGACRME | failed
22 | MGSSHHHHHHSSGRENLYFQGSQRPVDRNPPRINLMPTGANRVAMRNRGNNEADAALQALAQNGINMEDLRAALEAYIVWLRPIPLDIANALEGVGITPRFDNPEEAKVDNPLMNLSSALKRRLDA | not failed
